Publication doi:10.1101/2021.10.20.465058 (bioRxiv, 2021)

Assays:
[1] = target: the molecule itself; assay: cryo-EM structure
[2] = target: the molecule itself; assay: cryo-EM structure; remark: listed apart in the source
[3] = target: the molecule itself; assay: single-particle cryo-EM, 2D class averages only
[4] = target: the molecule itself; assay: native gel or EMSA

B1: YdiK, AI-2 exporter from E. coli (natural protein, Escherichia coli K-12, UniProt P0AFS7 1-370, looked up)
chain: MVNVRQPRDVAQILLSVLFLAIMIVACLWIVQPFILGFAWAGTVVIATWPVLLRLQKIMFGRRSLAVLVMTLLLVMVFIIPIALLVNSIVDGSGPLIKAISSGDMTLPDLAWLNTIPVIGAKLYAGWHNLLDMGGTAIMAKVRPYIGTTTTWFVGQAAHIGRFMVHCALMLLFSALLYWRGEQVAQGIRHFATRLAGVRGDAAVLLAAQAIRAVALGVVVTALVQAVLGGIGLAVSGVPYATLLTVLMILSCLVQLGPLPVLIPAIIWLYWTGDTTWGTVLLVWSGVVGTLDNVIRPMLIRMGADLPLILILSGVIGGLIAFGMIGLFIGPVLLAVSWRLFAAWVEEVPPPTDQPEEILEELGEIEKPNK
[1]
  stoichiometry N: 5

B2: TqsA (transporter of quorum-sensing signal AI-2) from E. coli (natural protein, Escherichia coli K-12, UniProt P0AFS5 1-344, looked up)
chain: MAKPIITLNGLKIVIMLGMLVIILCGIRFAAEIIVPFILALFIAVILNPLVQHMVRWRVPRVLAVSILMTIIVMAMVLLLAYLGSALNELTRTLPQYRNSIMTPLQALEPLLQRVGIDVSVDQLAHYIDPNAAMTLLTNLLTQLSNAMSSIFLLLLTVLFMLLEVPQLPGKFQQMMARPVEGMAAIQRAIDSVSHYLVLKTAISIITGLVAWAMLAALDVRFAFVWGLLAFALNYIPNIGSVLAAIPPIAQVLVFNGFYEALLVLAGYLLINLVFGNILEPRIMGRGLGLSTLVVFLSLIFWGWLLGPVGMLLSVPLTIIVKIALEQTAGGQSIAVLLSDLNKE
[1]
  stoichiometry N: 5

B3: Aq_740, AI-2 exporter from Aquifex aeolicus (natural protein, UniProt O66948 1-353, looked up)
chain: MNKLSLFVYLFFFLSFLFLFLYLLQPFFNPIVWAIVFGIVLYPLYGFIKRKLKSENLAAFLVIFIVLVAIVIPFTIFAVITAQQIIVFSIKVVNFVQTHSVNDLINSLKEIPFLKEKRESLEPLLNYLQSEEFRRALINALNSILTFVGDRLRSYVYTAGTSLFHVFVFLLTLFFILRDGEKVLKEIINSIPMKREDLEEILKTIYRTVLAVIYGTVGTAVAQSIMGFIGYSLAGVEFALIWALITFFAAFVPPFGAAFVWVPMDIYLFTTKGIKEGLILLFFGTFLISTMDNIVRPLVMKQGIKLPYVALFFSTIGGLIKFGFIGVFLGPIILSTMLASVKIYRRRVIHSGI
[2]
  stoichiometry N: 5

B4: YhhT, AI-2 exporter from E. coli (natural protein, Escherichia coli K-12, UniProt P0AGM0 1-349, looked up)
chain: METPQPDKTGMHILLKLASLVVILAGIHAAADIIVQLLLALFFAIVLNPLVTWFIRRGVQRPVAITIVVVVMLIALTALVGVLAASFNEFISMLPKFNKELTRKLFKLQEMLPFLNLHMSPERMLQRMDSEKVVTFTTALMTGLSGAMASVLLLVMTVVFMLFEVRHVPYKMRFALNNPQIHIAGLHRALKGVSHYLALKTLLSLWTGVIVWLGLELMGVQFALMWAVLAFLLNYVPNIGAVISAVPPMIQVLLFNGVYECILVGALFLVVHMVIGNILEPRMMGHRLGMSTMVVFLSLLIWGWLLGPVGMLLSVPLTSVCKIWMETTKGGSKLAILLGPGRPKSRLPG
[3]
  stoichiometry N: 5

B5: PerM, AI-2 exporter from E. coli (natural protein, Escherichia coli K-12, UniProt P0AFI9 1-353, looked up)
chain: MLEMLMQWYRRRFSDPEAIALLVILVAGFGIIFFFSGLLAPLLVAIVLAYLLEWPTVRLQSIGCSRRWATSIVLVVFVGILLLMAFVVLPIAWQQGIYLIRDMPGMLNKLSDFAATLPRRYPALMDAGIIDAMAENMRSRMLTMGDSVVKISLASLVGLLTIAVYLVLVPLMVFFLLKDKEQMLNAVRRVLPRNRGLAGQVWKEMNQQITNYIRGKVLEMIVVGIATWLGFLLFGLNYSLLLAVLVGFSVLIPYIGAFVVTIPVVGVALFQFGAGTEFWSCFAVYLIIQALDGNLLVPVLFSEAVNLHPLVIILSVVIFGGLWGFWGVFFAIPLATLIKAVIHAWPDGQIAQE
[4]
  stoichiometry N: 2
